These results are taken from publication PMC11318927.

Test [1] has as its target YY1 cellular transcription factor, endogenous in LCLs (UniProt P25490). The test is described as follows: co-immunoprecipitation (YY1 IP, EBNA-LP blot, band signal quantified). The following applies: 50% IP lanes; trans-complemented LPKO LCLs; parent: 1.
For test [2] the target is unchanged. Put plainly: co-immunoprecipitation (FLAG-EBNA-LP IP, YY1 blot, band signal quantified). The following applies: 50% IP lanes; LPKO LCLs (Donor 4) trans-complemented; parent: 1.0.

UniProt P25490, sequence (P25490 whole entry): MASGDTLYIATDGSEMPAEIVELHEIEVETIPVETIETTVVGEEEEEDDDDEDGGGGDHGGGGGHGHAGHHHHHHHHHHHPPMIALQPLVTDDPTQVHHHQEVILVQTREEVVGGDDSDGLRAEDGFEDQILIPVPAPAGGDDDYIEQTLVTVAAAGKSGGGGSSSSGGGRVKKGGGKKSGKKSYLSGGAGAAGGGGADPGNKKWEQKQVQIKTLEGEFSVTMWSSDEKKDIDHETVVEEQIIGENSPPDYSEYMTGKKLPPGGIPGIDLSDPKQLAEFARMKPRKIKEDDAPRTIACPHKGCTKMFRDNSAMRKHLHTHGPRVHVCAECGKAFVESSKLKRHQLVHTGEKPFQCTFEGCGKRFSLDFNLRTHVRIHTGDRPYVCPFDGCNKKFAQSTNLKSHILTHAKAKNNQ

In the case of “FLAG-EBNA-LP wild type (B95-8) with four W domains, from the trans-complementation vector W:L25A; W:L28A; W:L29A (in each of the four W domains); Y:L13A; Y:L17A; Y:L18A”, the response in test [1] came to 0; in test [2] it was 0.01.
